# T1: APBA1_1, Q02410
# T1 sequence (Q02410 651-752, limits assumed, looked up): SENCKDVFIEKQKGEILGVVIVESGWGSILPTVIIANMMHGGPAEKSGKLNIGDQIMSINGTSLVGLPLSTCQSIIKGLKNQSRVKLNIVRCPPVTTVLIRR
# T2: APBA1_2, Q02410
# T2 sequence (Q02410 742-832, limits assumed, looked up): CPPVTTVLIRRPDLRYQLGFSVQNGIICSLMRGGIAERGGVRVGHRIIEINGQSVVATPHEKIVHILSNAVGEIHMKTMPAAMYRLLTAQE
# T3: APBA2_1, Q99767
# T3 sequence (Q99767 563-664, limits assumed, looked up): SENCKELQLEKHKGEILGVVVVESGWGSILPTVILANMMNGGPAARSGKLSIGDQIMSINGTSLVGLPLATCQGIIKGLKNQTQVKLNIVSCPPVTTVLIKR
# T4: APBA3_1, O96018
# T4 sequence (O96018 389-490, limits assumed, looked up): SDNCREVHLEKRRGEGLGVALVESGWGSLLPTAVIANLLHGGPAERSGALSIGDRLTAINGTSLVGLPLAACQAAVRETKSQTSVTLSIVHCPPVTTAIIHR
# T5: DFNB31_1, Q9P202
# T5 sequence (Q9P202 135-233, limits assumed, looked up): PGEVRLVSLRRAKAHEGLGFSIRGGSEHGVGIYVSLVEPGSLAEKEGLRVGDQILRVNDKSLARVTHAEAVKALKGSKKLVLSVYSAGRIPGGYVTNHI
# T6: FRMPD1, Q5SYB0
# T6 sequence (Q5SYB0 52-145, limits assumed, looked up): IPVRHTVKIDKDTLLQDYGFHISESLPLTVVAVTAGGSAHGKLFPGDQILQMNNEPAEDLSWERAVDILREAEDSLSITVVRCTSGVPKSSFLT
# T7: GRIP1_7, Q9Y3R0
# T7 sequence (Q9Y3R0 999-1096, limits assumed, looked up): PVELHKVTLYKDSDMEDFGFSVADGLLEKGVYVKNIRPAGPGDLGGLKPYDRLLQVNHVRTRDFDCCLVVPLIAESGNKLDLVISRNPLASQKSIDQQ
# T8: LRRC7, Q96NW7
# T8 sequence (Q96NW7 1440-1537, limits assumed, looked up): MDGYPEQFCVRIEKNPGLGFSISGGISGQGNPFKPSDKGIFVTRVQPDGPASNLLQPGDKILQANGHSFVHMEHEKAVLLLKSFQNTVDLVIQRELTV
# T9: NHERF3_1, Q5T2W1
# T9 sequence (Q5T2W1 4-100, limits assumed, looked up): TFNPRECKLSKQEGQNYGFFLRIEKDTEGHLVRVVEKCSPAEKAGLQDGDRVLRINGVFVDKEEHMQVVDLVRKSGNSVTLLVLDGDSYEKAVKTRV
# T10: NHERF3_3, Q5T2W1
# T10 sequence (Q5T2W1 238-333, limits assumed, looked up): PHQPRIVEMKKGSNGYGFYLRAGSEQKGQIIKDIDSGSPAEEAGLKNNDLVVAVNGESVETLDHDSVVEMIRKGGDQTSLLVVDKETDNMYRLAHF
# T11: NHERF3_4, Q5T2W1
# T11 sequence (Q5T2W1 373-468, limits assumed, looked up): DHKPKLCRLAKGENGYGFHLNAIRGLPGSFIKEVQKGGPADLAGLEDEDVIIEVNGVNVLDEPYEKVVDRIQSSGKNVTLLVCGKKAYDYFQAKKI
# T12: PTPN13_1, Q12923
# T12 sequence (Q12923 1088-1188, limits assumed, looked up): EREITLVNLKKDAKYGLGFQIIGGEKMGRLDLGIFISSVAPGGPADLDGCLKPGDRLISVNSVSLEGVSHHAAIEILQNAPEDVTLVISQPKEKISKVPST
# How the values were obtained:
# Test in all cases: holdup assay
# Design in all cases: key: below the threshold = too weak to quantify, mostly under pKd 3.1 to 4
# Conditions in all cases: plain residues with an end cap or a label only (N-terminal biotin on a linker: ado-ado)
# APBA1_1, Q02410 = molecular target: T1, APBA1_1, Q02410
# APBA1_2, Q02410 = molecular target: T2, APBA1_2, Q02410
# APBA2_1, Q99767 = molecular target: T3, APBA2_1, Q99767
# APBA3_1, O96018 = molecular target: T4, APBA3_1, O96018
# DFNB31_1, Q9P202 = molecular target: T5, DFNB31_1, Q9P202
# DLG1_1, Q12959 = molecular target: DLG1_1, Q12959
# DLG1_2, Q12959 = molecular target: DLG1_2, Q12959
# DLG1_3, Q12959 = molecular target: DLG1_3, Q12959
# DLG2_3, Q15700 = molecular target: DLG2_3, Q15700
# FRMPD1, Q5SYB0 = molecular target: T6, FRMPD1, Q5SYB0
# FRMPD3, Q5JV73 = molecular target: FRMPD3, Q5JV73
# FRMPD4, Q14CM0 = molecular target: FRMPD4, Q14CM0
# GRID2IP_1, A4D2P6 = molecular target: GRID2IP_1, A4D2P6
# GRIP1_7, Q9Y3R0 = molecular target: T7, GRIP1_7, Q9Y3R0
# GRIP2_7, Q9C0E4 = molecular target: GRIP2_7, Q9C0E4
# HTRA2, O43464 = molecular target: HTRA2, O43464
# IL16_4, Q14005 = molecular target: IL16_4, Q14005
# Inadl_2, Q8NI35 = molecular target: Inadl_2, Q8NI35
# Inadl_5, Q8NI35 = molecular target: Inadl_5, Q8NI35
# LRRC7, Q96NW7 = molecular target: T8, LRRC7, Q96NW7
# MAGI2_2, Q86UL8 = molecular target: MAGI2_2, Q86UL8
# MAGI2_3, Q86UL8 = molecular target: MAGI2_3, Q86UL8
# NHERF3_1, Q5T2W1 = molecular target: T9, NHERF3_1, Q5T2W1
# NHERF3_3, Q5T2W1 = molecular target: T10, NHERF3_3, Q5T2W1
# NHERF3_4, Q5T2W1 = molecular target: T11, NHERF3_4, Q5T2W1
# PTPN13_1, Q12923 = molecular target: T12, PTPN13_1, Q12923
# MAGI2_3, Q86UL8, sequence (Q86UL8 600-682): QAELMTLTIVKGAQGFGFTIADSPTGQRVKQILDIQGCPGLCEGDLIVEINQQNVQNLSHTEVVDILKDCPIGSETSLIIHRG
# FRMPD3, Q5JV73, sequence (Q5JV73 12-100): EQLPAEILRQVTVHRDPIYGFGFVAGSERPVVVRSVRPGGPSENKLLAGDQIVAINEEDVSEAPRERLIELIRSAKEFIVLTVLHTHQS
# MAGI2_2, Q86UL8, sequence (Q86UL8 410-522): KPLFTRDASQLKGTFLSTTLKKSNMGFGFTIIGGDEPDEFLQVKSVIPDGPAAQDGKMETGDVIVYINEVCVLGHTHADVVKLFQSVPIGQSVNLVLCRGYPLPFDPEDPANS
# IL16_4, Q14005, sequence (Q14005 1229-1329): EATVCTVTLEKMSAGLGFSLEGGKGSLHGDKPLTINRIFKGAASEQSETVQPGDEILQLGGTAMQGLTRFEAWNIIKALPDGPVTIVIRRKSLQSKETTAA
# GRIP2_7, Q9C0E4, sequence (Q9C0E4 934-1023): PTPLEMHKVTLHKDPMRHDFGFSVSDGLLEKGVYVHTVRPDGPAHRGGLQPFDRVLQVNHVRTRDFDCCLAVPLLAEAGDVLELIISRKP
# HTRA2, O43464, sequence (O43464 355-458): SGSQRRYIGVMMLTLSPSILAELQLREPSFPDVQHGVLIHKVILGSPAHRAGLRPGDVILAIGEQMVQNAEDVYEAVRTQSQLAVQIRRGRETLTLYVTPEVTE
# Inadl_2, Q8NI35, sequence (Q8NI35 238-335): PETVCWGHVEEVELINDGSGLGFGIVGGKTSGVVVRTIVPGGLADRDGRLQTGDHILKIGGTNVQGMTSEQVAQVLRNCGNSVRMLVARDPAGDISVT
# FRMPD4, Q14CM0, sequence (Q14CM0 67-160): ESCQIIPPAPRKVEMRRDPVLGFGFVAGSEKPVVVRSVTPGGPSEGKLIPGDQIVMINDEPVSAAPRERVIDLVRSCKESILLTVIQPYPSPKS
# GRID2IP_1, A4D2P6, sequence (A4D2P6 1-87): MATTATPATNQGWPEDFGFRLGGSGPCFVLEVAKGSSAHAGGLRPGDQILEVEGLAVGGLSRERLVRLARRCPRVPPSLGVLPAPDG
# Inadl_5, Q8NI35, sequence (Q8NI35 673-780): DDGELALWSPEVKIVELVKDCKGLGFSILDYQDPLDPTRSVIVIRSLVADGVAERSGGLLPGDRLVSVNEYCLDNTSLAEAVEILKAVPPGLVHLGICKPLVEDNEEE
Binder,"pKd (APBA1_1, Q02410)","pKd (APBA1_2, Q02410)","pKd (APBA2_1, Q99767)","pKd (APBA3_1, O96018)","pKd (DFNB31_1, Q9P202)","pKd (DLG1_1, Q12959)","pKd (DLG1_2, Q12959)","pKd (DLG1_3, Q12959)","pKd (DLG2_3, Q15700)","pKd (FRMPD1, Q5SYB0)","pKd (FRMPD3, Q5JV73)","pKd (FRMPD4, Q14CM0)","pKd (GRID2IP_1, A4D2P6)","pKd (GRIP1_7, Q9Y3R0)","pKd (GRIP2_7, Q9C0E4)","pKd (HTRA2, O43464)","pKd (IL16_4, Q14005)","pKd (Inadl_2, Q8NI35)","pKd (Inadl_5, Q8NI35)","pKd (LRRC7, Q96NW7)",other results
"GQEEQVTTRL [TRPC5, Q9UL62]",below the threshold,3.58,below the threshold,below the threshold,4.42,below the threshold,below the threshold,below the threshold,below the threshold,below the threshold,below the threshold,4.29,below the threshold,below the threshold,below the threshold,below the threshold,below the threshold,below the threshold,below the threshold,below the threshold,"pKd (MAGI2_2, Q86UL8): below the threshold; pKd (MAGI2_3, Q86UL8): below the threshold; pKd (NHERF3_1, Q5T2W1): 5.17; pKd (NHERF3_3, Q5T2W1): 4.65; pKd (NHERF3_4, Q5T2W1): 5.33; pKd (PTPN13_1, Q12923): below the threshold"
"NLSIEKETKL [ASNSD1, Q9NWL6]",below the threshold,below the threshold,below the threshold,below the threshold,4.41,below the threshold,3.93,3.53,3.77,below the threshold,below the threshold,4.28,below the threshold,below the threshold,below the threshold,below the threshold,below the threshold,below the threshold,below the threshold,below the threshold,"pKd (MAGI2_2, Q86UL8): below the threshold; pKd (MAGI2_3, Q86UL8): below the threshold; pKd (NHERF3_1, Q5T2W1): 6.04; pKd (NHERF3_3, Q5T2W1): 4.67; pKd (NHERF3_4, Q5T2W1): 4.13; pKd (PTPN13_1, Q12923): below the threshold"
"SKENVQETQI [LRRC4B, Q9NT99]",3.48,below the threshold,below the threshold,below the threshold,5.32,4.23,4.64,3.77,4.17,below the threshold,below the threshold,below the threshold,below the threshold,below the threshold,below the threshold,below the threshold,below the threshold,below the threshold,below the threshold,below the threshold,"pKd (MAGI2_2, Q86UL8): below the threshold; pKd (MAGI2_3, Q86UL8): 3.63; pKd (NHERF3_1, Q5T2W1): 5.07; pKd (NHERF3_3, Q5T2W1): below the threshold; pKd (NHERF3_4, Q5T2W1): below the threshold; pKd (PTPN13_1, Q12923): below the threshold"
"SSALYGESDL [ACTN2, P35609]",below the threshold,below the threshold,below the threshold,below the threshold,below the threshold,below the threshold,below the threshold,3.75,3.94,below the threshold,below the threshold,below the threshold,below the threshold,below the threshold,below the threshold,below the threshold,below the threshold,below the threshold,below the threshold,3.86,"pKd (MAGI2_2, Q86UL8): below the threshold; pKd (MAGI2_3, Q86UL8): below the threshold; pKd (NHERF3_1, Q5T2W1): 3.57; pKd (NHERF3_3, Q5T2W1): below the threshold; pKd (NHERF3_4, Q5T2W1): below the threshold; pKd (PTPN13_1, Q12923): below the threshold"

# Reference: article PMC9482650, “Quantitative fragmentomics allow affinity mapping of interactomes” (Nature Communications, 2022)
